Among the data in the supplement of paper PMC9233669 are self-aminoacylation values, retold here.

This sample holds only a part of the variants without activity.

The subject of one series is biotinyl-Phe-oxazolone. The experiment in a line: self-aminoacylation, catalytic enhancement (BFO) (fold over background); higher = more active; k-Seq, kA / k0A0; sequences stand for … in GGGAAUGGAUCCACAUCUACGAAUUC…UUCACUGCAGACUUGACGAAGCUG
Summed up:
(§1)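 Each biotinyl-aminoacyl-oxazolone, at 2–1250 μM, was incubated with mutagenized RNA pools (0.43 μM) carrying a 21-nt variable region. The 50 μL reactions contained HEPES/NaCl/KCl/MgCl2/CaCl2 buffer with 5% acetonitrile at pH 6.9–7.0 and ran for 90 minutes at room temperature. After streptavidin capture, RNA was measured by qPCR in triplicate and by Illumina sequencing, and catalytic enhancement was calculated as median kA over the uncatalyzed rate from a pseudo-first-order fit of per-sequence fraction reacted.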

Another series deals with biotinyl-Ile-oxazolone. In words: self-aminoacylation, catalytic enhancement (BIO) (fold over background); higher = more active; k-Seq, kA / k0A0; sequences stand for … in GGGAAUGGAUCCACAUCUACGAAUUC…UUCACUGCAGACUUGACGAAGCUG
Summed up:
as §1

The next series has as its system biotinyl-Met-oxazolone. The experiment in a line: self-aminoacylation, catalytic enhancement (BMO) (fold over background); higher = more active; k-Seq, kA / k0A0; sequences stand for … in GGGAAUGGAUCCACAUCUACGAAUUC…UUCACUGCAGACUUGACGAAGCUG
The procedure, abridged: as §1

For a further series, the system named is biotinyl-Val-oxazolone. In words: self-aminoacylation, catalytic enhancement (BVO) (fold over background); higher = more active; k-Seq, kA / k0A0; sequences stand for … in GGGAAUGGAUCCACAUCUACGAAUUC…UUCACUGCAGACUUGACGAAGCUG
The procedure, abridged: as §1

The test system of another series is biotinyl-Leu-oxazolone. In words: self-aminoacylation, catalytic enhancement (BLO) (fold over background); higher = more active; k-Seq, kA / k0A0; sequences stand for … in GGGAAUGGAUCCACAUCUACGAAUUC…UUCACUGCAGACUUGACGAAGCUG
Summed up: as §1

The test system of the next series is biotinyl-Trp-oxazolone. The experiment in a line: self-aminoacylation, catalytic enhancement (BWO) (fold over background); higher = more active; k-Seq, kA / k0A0; sequences stand for … in GGGAAUGGAUCCACAUCUACGAAUUC…UUCACUGCAGACUUGACGAAGCUG
The procedure, abridged: as §1

Turning to “AGUCACCUAUGUCAUCGGGUG [Fam2.2 aminoacylation ribozyme variant]”, the self-aminoacylation is 31.8 with biotinyl-Phe-oxazolone; 3.74 in the series on biotinyl-Ile-oxazolone; 4.37 in the series on biotinyl-Met-oxazolone; 3.19 in the series with biotinyl-Val-oxazolone; 4.74 in the series on biotinyl-Leu-oxazolone; 4.85 in the series with biotinyl-Trp-oxazolone.

As for “CUUCUUCAAACAAUCGGUCGG [Fam1A.1 aminoacylation ribozyme variant]”, the self-aminoacylation with biotinyl-Phe-oxazolone amounted to 10.9; in the series with biotinyl-Ile-oxazolone, 0.873; in the series on biotinyl-Met-oxazolone, 1.12; in the series with biotinyl-Val-oxazolone, 0.789; in the series on biotinyl-Leu-oxazolone it was 1.24; with biotinyl-Trp-oxazolone it was 7.44.

Consider “AACUUUGAUAAUAGUCGCAAG [Fam3.1 aminoacylation ribozyme variant]”, for which the self-aminoacylation with biotinyl-Phe-oxazolone turned out to be 2.61; with biotinyl-Ile-oxazolone, 1.71; in the series on biotinyl-Met-oxazolone it was 1.66; in the series on biotinyl-Val-oxazolone, 1.42; in the series with biotinyl-Leu-oxazolone, 1.91; with biotinyl-Trp-oxazolone, 1.55.

In the case of “AUUCACCAAGGUCAUCGGAUG [Fam2.2 aminoacylation ribozyme variant]”, the self-aminoacylation was 1.12 in the series with biotinyl-Phe-oxazolone; 1.09 in the series with biotinyl-Ile-oxazolone; 0.703 in the series with biotinyl-Met-oxazolone; 1.17 with biotinyl-Val-oxazolone; 0.794 in the series on biotinyl-Leu-oxazolone; 0.726 in the series with biotinyl-Trp-oxazolone.

In the case of “AUUACCUUGCUCAUCGAGUGA [Fam2.1 aminoacylation ribozyme variant]”, the self-aminoacylation in the series with biotinyl-Phe-oxazolone came out at 4.55; with biotinyl-Ile-oxazolone it was 1.68; in the series with biotinyl-Met-oxazolone it was 2.29; with biotinyl-Val-oxazolone, 1.82; in the series with biotinyl-Leu-oxazolone, 2.31; with biotinyl-Trp-oxazolone it was 3.02.

In the case of “AUUCACCUGGGUCAUCGGUUG [Fam2.2 aminoacylation ribozyme variant]”, the self-aminoacylation in the series with biotinyl-Phe-oxazolone amounted to 3.76; in the series with biotinyl-Ile-oxazolone it was 1.25; in the series on biotinyl-Met-oxazolone, 0.904; with biotinyl-Val-oxazolone, 1.44; in the series with biotinyl-Leu-oxazolone, 1.4; in the series with biotinyl-Trp-oxazolone, 1.62.

Regarding “AUUCACCUCGGUCAUCGGGUG [Fam2.2 aminoacylation ribozyme variant]”, the self-aminoacylation was found to be 53.6 in the series on biotinyl-Phe-oxazolone; 4.59 in the series with biotinyl-Ile-oxazolone; 7.69 in the series on biotinyl-Met-oxazolone; 5.15 with biotinyl-Val-oxazolone; 9.64 in the series on biotinyl-Leu-oxazolone; 7.49 with biotinyl-Trp-oxazolone.

“AUCACCCUGGUCAUCGAAUGA [Fam2.1 aminoacylation ribozyme variant]”: the self-aminoacylation in the series on biotinyl-Phe-oxazolone is 0.93; with biotinyl-Ile-oxazolone, 1.26; with biotinyl-Met-oxazolone it was 1.13; in the series with biotinyl-Val-oxazolone, 1.41; in the series on biotinyl-Leu-oxazolone, 1.29; in the series with biotinyl-Trp-oxazolone, 0.777.

In the case of “AUUCACCUAGGUCACCGGGCG [Fam2.2 aminoacylation ribozyme variant]”, the self-aminoacylation is 11.3 in the series with biotinyl-Phe-oxazolone; 3.96 in the series with biotinyl-Ile-oxazolone; 3.66 in the series on biotinyl-Met-oxazolone; 4.43 with biotinyl-Val-oxazolone; 4.7 in the series on biotinyl-Leu-oxazolone; 4.68 with biotinyl-Trp-oxazolone.

“AUACGCCUAGGUCAUCGGGUG [Fam2.2 aminoacylation ribozyme variant]”: the self-aminoacylation in the series on biotinyl-Phe-oxazolone turned out to be 36; in the series with biotinyl-Ile-oxazolone it was 4.85; with biotinyl-Met-oxazolone it was 7.57; with biotinyl-Val-oxazolone, 4.07; with biotinyl-Leu-oxazolone, 7.77; with biotinyl-Trp-oxazolone, 7.38.

For the sequence “AUUACCCUGGUGAUCGAGUGG [Fam2.1 aminoacylation ribozyme variant]”, the self-aminoacylation was 3.23 in the series on biotinyl-Phe-oxazolone; 1.11 with biotinyl-Ile-oxazolone; 1.79 in the series with biotinyl-Met-oxazolone; 1.26 in the series with biotinyl-Val-oxazolone; 1.63 in the series with biotinyl-Leu-oxazolone; 1.82 in the series on biotinyl-Trp-oxazolone.

In the case of “AAGUUUGCGAAUAGUCGCAUG [Fam3.1 aminoacylation ribozyme variant]”, the self-aminoacylation was found to be 1.13 in the series with biotinyl-Phe-oxazolone; 1.1 in the series on biotinyl-Ile-oxazolone; 1.04 in the series with biotinyl-Met-oxazolone; 1.08 in the series with biotinyl-Val-oxazolone; 1.23 with biotinyl-Leu-oxazolone; 1 in the series on biotinyl-Trp-oxazolone.

With “AUAACCCUGGUCAUCGAGUGC [Fam2.1 aminoacylation ribozyme variant]”, the self-aminoacylation stood at 4.44 with biotinyl-Phe-oxazolone; 1.33 in the series on biotinyl-Ile-oxazolone; 1.96 with biotinyl-Met-oxazolone; 1.42 in the series with biotinyl-Val-oxazolone; 2.44 with biotinyl-Leu-oxazolone; 1.89 in the series on biotinyl-Trp-oxazolone.

On to “CUACUUUAAACAAUCGGACUG [Fam1A.1 aminoacylation ribozyme variant]”, for which the self-aminoacylation stood at 0.698 in the series with biotinyl-Phe-oxazolone; 0.901 in the series on biotinyl-Ile-oxazolone; 0.874 in the series with biotinyl-Met-oxazolone; 0.757 in the series with biotinyl-Val-oxazolone; 0.759 with biotinyl-Leu-oxazolone; 0.809 with biotinyl-Trp-oxazolone.

On to “CCACACGUCAAGCAAUCGGUG [Fam1B.1 aminoacylation ribozyme variant]”, for which the self-aminoacylation in the series with biotinyl-Phe-oxazolone amounted to 9.7; with biotinyl-Ile-oxazolone, 1.63; in the series on biotinyl-Met-oxazolone it was 2.02; with biotinyl-Val-oxazolone, 2.78; with biotinyl-Leu-oxazolone, 1.59; in the series on biotinyl-Trp-oxazolone, 2.35.

As to “AUAACCCUGGUCCUCGAGUGA [Fam2.1 aminoacylation ribozyme variant]”, the self-aminoacylation with biotinyl-Phe-oxazolone came out at 13.1; with biotinyl-Ile-oxazolone, 1.91; in the series on biotinyl-Met-oxazolone, 2.77; in the series with biotinyl-Val-oxazolone, 1.79; in the series with biotinyl-Leu-oxazolone it was 3.52; with biotinyl-Trp-oxazolone, 3.38.

Consider “CUACUUCUAUCAAUCGGUCUG [Fam1A.1 aminoacylation ribozyme variant]”, for which the self-aminoacylation was found to be 0.796 in the series on biotinyl-Phe-oxazolone; 0.7 in the series with biotinyl-Ile-oxazolone; 0.636 with biotinyl-Met-oxazolone; 0.63 in the series with biotinyl-Val-oxazolone; 0.554 in the series with biotinyl-Leu-oxazolone; 0.493 with biotinyl-Trp-oxazolone.

As to “CCACGCUUCAAGAAAUCGGUC [Fam1B.1 aminoacylation ribozyme variant]”, the self-aminoacylation in the series on biotinyl-Phe-oxazolone came to 10.3; with biotinyl-Ile-oxazolone, 0.895; in the series with biotinyl-Met-oxazolone, 0.772; with biotinyl-Val-oxazolone it was 0.945; in the series on biotinyl-Leu-oxazolone, 1.19; in the series on biotinyl-Trp-oxazolone it was 8.12.

As for “AAGUUUGCUAAUUGUCGCUAG [Fam3.1 aminoacylation ribozyme variant]”, the self-aminoacylation is 0.848 in the series on biotinyl-Phe-oxazolone; 0.95 in the series with biotinyl-Ile-oxazolone; 1 in the series on biotinyl-Met-oxazolone; 1.02 in the series on biotinyl-Val-oxazolone; 1.17 with biotinyl-Leu-oxazolone; 1.08 in the series on biotinyl-Trp-oxazolone.

Regarding “AUUACCCUGGUCAUCGACUGC [Fam2.1 aminoacylation ribozyme variant]”, the self-aminoacylation in the series with biotinyl-Phe-oxazolone amounted to 0.441; with biotinyl-Ile-oxazolone, 0.701; in the series with biotinyl-Met-oxazolone it was 0.555; in the series on biotinyl-Val-oxazolone, 0.722; in the series with biotinyl-Leu-oxazolone, 0.839; in the series on biotinyl-Trp-oxazolone, 0.371.

As to “AAUACCCUGGUCAUCGAAUGA [Fam2.1 aminoacylation ribozyme variant]”, the self-aminoacylation with biotinyl-Phe-oxazolone amounted to 0.529; in the series with biotinyl-Ile-oxazolone, 0.855; in the series on biotinyl-Met-oxazolone it was 0.76; in the series with biotinyl-Val-oxazolone, 0.781; in the series with biotinyl-Leu-oxazolone, 0.724; in the series on biotinyl-Trp-oxazolone, 1.17.

Take “CUACUUCAAACGAUCGGCCUG [Fam1A.1 aminoacylation ribozyme variant]”: the self-aminoacylation is 1.59 with biotinyl-Phe-oxazolone; 1.55 in the series on biotinyl-Ile-oxazolone; 1.33 in the series with biotinyl-Met-oxazolone; 1.66 in the series with biotinyl-Val-oxazolone; 1.96 in the series with biotinyl-Leu-oxazolone; 2.08 in the series with biotinyl-Trp-oxazolone.

In the case of “CAGUUUGCUAGUAGUCGCAAG [Fam3.1 aminoacylation ribozyme variant]”, the self-aminoacylation with biotinyl-Phe-oxazolone was 1.19; in the series with biotinyl-Ile-oxazolone, 0.938; with biotinyl-Met-oxazolone, 0.827; with biotinyl-Val-oxazolone, 1.04; with biotinyl-Leu-oxazolone, 1.25; in the series on biotinyl-Trp-oxazolone, 1.37.

Regarding “CUACUUCAAACGAGCGGUCUG [Fam1A.1 aminoacylation ribozyme variant]”, the self-aminoacylation with biotinyl-Phe-oxazolone is 0.761; in the series on biotinyl-Ile-oxazolone, 0.8; in the series on biotinyl-Met-oxazolone, 0.943; with biotinyl-Val-oxazolone it was 1.02; in the series on biotinyl-Leu-oxazolone, 0.689; in the series with biotinyl-Trp-oxazolone, 0.477.

With “AUUCACCCUGGUCAUCGGGUG [Fam2.2 aminoacylation ribozyme variant]”, the self-aminoacylation in the series with biotinyl-Phe-oxazolone was determined as 71; with biotinyl-Ile-oxazolone, 5.16; in the series on biotinyl-Met-oxazolone, 10.6; in the series with biotinyl-Val-oxazolone it was 5.5; in the series on biotinyl-Leu-oxazolone, 11.5; in the series with biotinyl-Trp-oxazolone, 10.6.
